Data from paper PMC5247461.

Target: OsPUB2 recombinant protein, bacterially expressed ((His)6-OsPUB2 and MBP-OsPUB2) (rice (Oryza sativa L.))

Work on “OsPUB3 recombinant protein, bacterially expressed ((His)6-OsPUB3 and MBP-OsPUB3) (natural protein)” yielded an apparent half-life of MBP-OsPUB2 in mock-treated rice cell-free extract when mixed with (His)6-OsPUB3 (150 min without it); cell-free degradation assay, 0-6 h at 30°C of 4.17 h and an apparent half-life of MBP-OsPUB3 in mock-treated rice cell-free extract when mixed with (His)6-OsPUB2 (140 min without it); cell-free degradation assay, 0-6 h at 30°C of 5.83 h.
